In US20180155451A1 (published 2018):
Residue numbers refer to the chain shown, from its start. Names may count otherwise.

T1: FcgRIIb extracellular domain with C-terminal His tag (human, UniProt P31994 43-217)
T1 construct: extracellular domain; also called FcγRIIb; not shown: His tag attached to the C terminus
T1 sequence (looked up): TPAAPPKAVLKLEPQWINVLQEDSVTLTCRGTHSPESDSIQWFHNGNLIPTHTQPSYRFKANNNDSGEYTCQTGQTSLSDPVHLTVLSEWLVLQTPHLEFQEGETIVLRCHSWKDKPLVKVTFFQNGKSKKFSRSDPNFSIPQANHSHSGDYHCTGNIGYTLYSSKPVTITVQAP

T2: FcgRIIa H type extracellular domain, C-terminal His tag (human, UniProt P12318 34-217)
T2 construct: extracellular domain; also called FcγRIIa H; 2aH; not shown: His tag attached to the C terminus
T2 sequence (looked up): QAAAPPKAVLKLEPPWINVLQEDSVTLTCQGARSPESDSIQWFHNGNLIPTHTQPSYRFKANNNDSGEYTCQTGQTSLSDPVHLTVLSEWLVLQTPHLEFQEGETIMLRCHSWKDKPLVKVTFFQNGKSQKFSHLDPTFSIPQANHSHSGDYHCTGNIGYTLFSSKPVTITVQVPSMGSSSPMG

T3: FcgRIIb extracellular domain, C-terminal His tag (human, UniProt P31994 43-217)
T3 construct: extracellular domain; also called FcγRIIb; 2b; not shown: His tag attached to the C terminus
T3 sequence (looked up): T1 sequence (looked up)

T4: FcgRIIa R type extracellular domain, C-terminal His tag (human, UniProt P12318 34-217)
T4 construct: extracellular domain; also called FcγRIIa R; 2aR; not shown: His tag attached to the C terminus
T4 sequence (looked up): T2 sequence (looked up) with H134R

B1: GpH7-G1d/GpL16-k0 (antibody, human IgG1, kappa)
heavy: not shown
light: DIVMTQSPLSLPVTPGEPASISCQASESLVHSNRNTYLHWYLQKPGQSPQLLIYKVSNRFSGVPDRFSGSGSGTDFTLKISRVEAEDVGVYYCSQNTHVPPTFGQGTKVEIERTVAAPSVFIFPPSDEQLKSGTASVVCLLNNFYPREAKVQWKVDNALQSGNSQESVTEQDSKDSTYSLSSTLTLSKADYEKHKVYACEVTHQGLSSPVTKSFNRGEC
notes: Anti-glypican-3 native-type human IgG1 control; also called native IgG1
B2: GpH7-G1d/GpL16-k0 (antibody, human IgG1, kappa)
heavy: not shown
light: B1 light
notes: Anti-glypican-3 IgG1 lacking the C-terminal Gly and Lys; also called native IgG1
B3: GpH7-A5/GpH7-B3/GpL16-k0 (antibody, human IgG1, kappa)
heavy 1: not shown
heavy 2: not shown
light: B1 light
notes: also called A5/B3; HeCon Ab
B4: GpH7-A5/GpH7-B78/GpL16-k0 (antibody, human IgG1, kappa)
heavy 1: not shown
heavy 2: QVQLVQSGAEVKKPGASVTVSCKASGYTFTDYEMHWIRQPPGEGLEWIGAIDPKTGDTAYSESFQDRVTLTADKSTSTAYMELSSLTSEDTAVYYCTRFYSYTYWGQGTLVTVSSASTKGPSVFPLAPSSKSTSGGTAALGCLVKDYFPEPVTVSWNSGALTSGVHTFPAVLQSSGLYSLSSVVTVPSSSLGTQTYICNVNHKPSNTKVDKKVEPKSCDKTHTCPPCPAPELLGGPDVFLFPPKPKDTLMISRTPEVTCVVVDVSHEDPEVKFNWYVDGVEVHNAKTKPREEQYNSTYRVVSVLTVLHQDWLNGKEYKCKVSNKALPLPEEKTISKAKGQPREPQVYTLPPSRDELTKNQVSLTCLVKGFYPSDIAVEWESNGQPENNYKTTPPVLDSDGSFFLYSKLTVDKSRWQQGNVFSCSVMHEALHNHYTQESLSLSP
light: B1 light
notes: S239D/A330L/I332E in one H chain only; also called A5/B78
B5: GpH7-A57/GpH7-B78/GpL16-k0 (antibody, human IgG1, kappa)
heavy 1: B4 heavy 2 with D354K, H433R, E437K
heavy 2: B4 heavy 2
light: B1 light
notes: S239D/A330L/I332E in both H chains (called homodimerized); also called A57/B78
B6: GpH7-TA7/GpH7-B3/GpL16-k0 (antibody, human IgG1, kappa)
heavy 1: B4 heavy 2 with L232Y, G234W, D237S, S296A, L328A, E330I, D354K, H433R, E437K
heavy 2: not shown
light: B1 light
notes: L234Y/G236W/S298A in one H chain only; also called TA7/B3
B7: H240-FA021/H240-FB083/L73-k0 (antibody, human IgG1, kappa)
heavy 1: QDQLVQSGAEVKKPGASVKVSCKASGFNIKDTYIQWVRQAPGQGLEWMGRIDPLRKQTKYREKFEGRVTITADTSTNTAYMELSSLRSEDTAVYYCVRSGREFDYWGQGTLVTVSSASTKGPSVFPLAPSSKSTSGGTAALGCLVKDYFPEPVTVSWNSGALTSGVHTFPAVLQSSGLYSLSSVVTVPSSSLGTKTYTCNVNHKPSNTKVDKKVEPKSCDKTHTCPPCPAPEYYWGPSVFLFPPKPKDTLMISRTPEVTCVVVDVSDEEPEVKFNWYVDGVEVHNAKTKPREEQYNATYRVVSVLTVLHQDWLNGKEYKCKVSNKALPAPIEKTISKAKGQPREPQVYTLPPSRKEKTKNQVSLTCLVKGFYPSDIAVEWESNGQPENNYKTTPPKLDSDGSFFLYSKLTVDKSRWQQGNVFSCSVMHEALHNRYTQKSLSLSP
heavy 2: QDQLVQSGAEVKKPGASVKVSCKASGFNIKDTYIQWVRQAPGQGLEWMGRIDPLRKQTKYREKFEGRVTITADTSTNTAYMELSSLRSEDTAVYYCVRSGREFDYWGQGTLVTVSSASTKGPSVFPLAPSSKSTSESTAALGCLVEDYFPEPVTVSWNSGALTSGVHTFPAVLQSSGLYSLSSVVTVPSSNFGTQTYTCNVDHKPSNTKVDKTVEPKSCDKTHTCPPCPAPELLGGPSVFLFPPKPKDTLMISRTPEVTCVVVDVSHEEPEVQFNWYVDGVEVHNAETKPREEQYNSTYRVVSVLTVLHQDWLNGKEYKCKVSNDALPMPIEETISKAKGQPREPQVYTLPPSREEMTKNQVSLTCLVKGFYPSDIAVEWESNGQPENNYKTTPPVLDSDGSFFLYSKLTVDKSRWQQGNVFSCSVMHEALHNHYTQESLSLSP
light: DIQMTQSPSSLSASVGDRVTITCRASQDIHKYIAWYQQKPGQAPRLLIQYTSTLQPGVPSRFSGSGSGTDYTFTISSLQPEDIATYYCLQYEQLRTFGGGTKVEIKRTVAAPSVFIFPPSDEQLKSGTASVVCLLNNFYPREAKVQWKVDNALQSGNSQESVTEQDSKDSTYSLSSTLTLSKADYEKHKVYACEVTHQGLSSPVTKSFNRGEC
notes: Heterodimerized anti-epiregulin IgG1 antibody
B8: H240-FA021/H240-FB084/L73-k0 (antibody, human IgG1, kappa)
heavy 1: B7 heavy 1
heavy 2: B7 heavy 2 with N383E
light: B7 light
notes: Heterodimerized anti-epiregulin IgG1 antibody; also called H240-FA021/H240-BF084/L73-k0

Columns and labels:
[1] = biological target: T5, FcγRIIIa extracellular domain with C-terminal His tag (human, UniProt P08637 17-208); test: SPR (Biacore), ratio of KD values for FcγRIIIa
T5 construct: extracellular domain; also called FcgRIIIa; CD16A
T5 sequence (P08637 17-208): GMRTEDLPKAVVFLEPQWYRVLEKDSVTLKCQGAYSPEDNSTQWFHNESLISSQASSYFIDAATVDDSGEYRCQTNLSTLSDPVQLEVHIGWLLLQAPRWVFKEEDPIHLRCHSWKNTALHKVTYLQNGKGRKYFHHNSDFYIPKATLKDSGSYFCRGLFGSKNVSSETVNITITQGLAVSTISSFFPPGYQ
Source text: GpH7-A57 (SEQ ID NO: 40) resulting from the introduction of all of S239D, A330L, and I332E into GpH7-A5; GpH7-B78 (SEQ ID NO: 41) resulting from the introduction of all of S239D, A330L, and I332E into GpH7-B3; GpH7-TA7 (SEQ ID NO: 31) resulting from the introduction of all of L234Y, G236W, and S298A into GpH7-A5; and GpH7-TA45 (SEQ ID NO: 32) resulting from the introduction of all of L234Y, G236W, and S298A into GpH7-B3. […] The prepared antibodies were compared for the FcγRIIIa-binding activity using, as an indicator, KD for FcγRIIIa that was determined according to the method described in Reference Example 2.
(§1) Analysis of interaction between objective antibody and the FcγR was carried out using Biacore T100 (GE Healthcare). HBS-EP+ (GE Healthcare) was used as the running buffer, and the measurement temperature was set to 25° C. Chips produced by immobilizing the antigen peptide by the amine coupling method to a Series S Sencor Chip CM5 (GE Healthcare), or alternatively, chips produced by allowing preliminarily biotinylated antigen peptides to interact with and immobilize onto a Series S Sensor Chip SA (certified) (GE Healthcare) were used. Antibodies of interest were captured onto an antigen peptide-immobilized chip, and allowed to interact to each FcγR diluted with running buffer. To regenerate and repeatedly use the chip, the antibodies captured on the chip were washed off by reacting 10 mM glycine-HCl, pH 1.5.

[2] = biological target: T5, FcγRIIIa extracellular domain with …; test: SPR (Biacore), antibody captured, FcγRIIIa as analyte, 1:1 Langmuir kinetic fit
Procedure: The prepared antibodies were compared for the FcγRIIIa-binding activity using, as an indicator, KD for FcγRIIIa that was determined according to the method described in Reference Example 2.
as §1
(§2) The FcγR-binding activity of each antibody was assessed primarily using as an indicator the FcγR-binding activity and dissociation constant for FcγR.

[3] = biological target: T6, FcgRIIIa F extracellular domain with C-terminal His tag (human, UniProt P08637 17-208); test: SPR (Biacore T100), antibody captured on antigen peptide chip, FcγR extracellular domain as analyte, kinetic analysis
T6 construct: extracellular domain; also called FcγRIIIa F; FcγRIIIa (F158); not shown: His tag attached to the C terminus
T6 sequence (P08637 17-208): as above
Procedure: (§3) The prepared antibodies were assayed as to the KDs for FcγRIIIa and FcγRIIb according to the method described in Reference Example 2.
as §1, §2

[4] = biological target: T1, FcgRIIb extracellular domain with …; test: as above
Procedure: as §3, §1, §2

[5] = biological target: T6, FcgRIIIa F extracellular domain with …; test: ratio of SPR (Biacore) KDs, FcγRIIb as reference
Procedure: as §3, §1, §2

[6] = biological target: T7, FcgRIIIa F type extracellular domain, C-terminal His tag (human, UniProt P08637 17-208); test: SPR (Biacore), antibody captured on chip, FcgR extracellular domain as analyte, 25 C, 1:1 Langmuir fit; experiment #3
T7 construct: extracellular domain; also called FcγRIIIa F; 3aF; not shown: His tag attached to the C terminus
T7 sequence (P08637 17-208): as above
Procedure: (§4) Antibodies of interest were analyzed for the interaction to FcgR according to the method described in Reference Example 8.
(§5) Analysis of interaction between obj ective antibody and the FcγR was carried out using Biacore T100 (GE Healthcare), Biacore T200, Biacore A100, and Biacore 4000. HBS-EP+ (GE Healthcare) was used as the running buffer, and the measurement temperature was set to 25° C. Chips produced by immobilizing the antigen peptide by the amine coupling method to a Series S sensor Chip CM5 (GE Healthcare), chips produced by allowing preliminarily biotinylated antigen peptides to interact with and immobilize onto a Series S Sensor Chip SA (certified) (GE Healthcare), chips produced by immobilizing Protein L (ACTIGEN, BioVision) to Series S Sencor Chip CM5 (GE Healthcare), or chips produced by immobilizing Protein A/G (Thermo Scientific) to Series S Sencor Chip CM5 (GE Healthcare) were used. Antibodies of interest were captured onto these chips, and allowed to interact to each FcγR diluted with running buffer. To regenerate and repeatedly use the chip, the antibodies captured onto the chip were washed off by reacting 10 mM glycine-HCl, pH 1.5.

[7] = biological target: T8, FcgRI extracellular domain, C-terminal His tag (human, UniProt P12314 16-292); test: as above
T8 construct: extracellular domain; also called FcγRIa; FcgRIa; not shown: His tag attached to the C terminus
T8 sequence (P12314 16-292): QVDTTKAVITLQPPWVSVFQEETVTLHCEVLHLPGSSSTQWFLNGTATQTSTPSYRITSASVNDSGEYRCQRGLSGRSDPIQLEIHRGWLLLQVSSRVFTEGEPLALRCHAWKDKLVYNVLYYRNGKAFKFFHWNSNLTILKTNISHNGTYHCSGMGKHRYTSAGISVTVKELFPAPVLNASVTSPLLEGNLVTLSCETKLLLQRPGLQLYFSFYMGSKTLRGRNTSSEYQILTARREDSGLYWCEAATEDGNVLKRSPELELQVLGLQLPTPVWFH
Procedure: as §4, §5

[8] = biological target: T2, FcgRIIa H type extracellular domain, …; test: as above
Procedure: as §4, §5

[9] = biological target: T3, FcgRIIb extracellular domain, …; test: as above
Procedure: as §4, §5

[10] = biological target: T9, FcgRIIIa V type extracellular domain, C-terminal His tag (human, UniProt P08637 17-208); test: as above
T9 construct: extracellular domain; also called FcγRIIIa V; 3aV; not shown: His tag attached to the C terminus
T9 sequence (P08637 17-208 F176V limits assumed): as the sequence (P08637 17-208) above, with F160V counted along it
Procedure: as §4, §5

[11] = biological target: T4, FcgRIIa R type extracellular domain, …; test: as above
Procedure: as §4, §5

Binder | Kd [3] [nM] | Kd [4] [nM] | FcγRIIIa F/FcγRIIb ratio (KD for FcγRIIb / KD for FcγRIIIa F) [5] | other results
B1 | – | – | – | KD ratio 1 (KD of GpH7-G1d/GpL16-k0 divided by KD of the antibody) [1]: 1 fold; Kd [2]: 1200 nM
B2 | 1200 | 3100 | 2.5 | –
B3 | 1600 | 3100 | 1.9 | –
B4 | 54 | 430 | 7.9 | –
B5 | 6.2 | 610 | 100 | –
B6 | 320 | 4500 | 14 | –
B7 | – | – | – | Kd [6]: 3.9 nM; Kd [7]: 0.078 nM; Kd [8]: 69 nM; Kd [9]: 1300 nM; Kd [10]: 1.4 nM; Kd [11]: 240 nM
B8 | – | – | – | Kd [6]: 3.3 nM; Kd [7]: 0.033 nM; Kd [8]: 69 nM; Kd [9]: 1300 nM; Kd [10]: 1.3 nM; Kd [11]: 230 nM
